From the DeepSol protein solubility set

experiment: soluble on expression in E. coli; label from the status in PepcDB or PDB records

| Sequence | soluble on expression in E. coli |
| --- | --- |
| MPRVGIITSDFKFYHDVIKQLRLWKIPFVSLDLKGNIPDDVVVILSSIRDDIDLPDQVKAQDGLDGIRRAIPRLLNKTMFKDLTIGIDPGPKPGIAVFGDDVLLEAFECPTVFSVRKFVDSISMSYSYENITIKIGNGDRPNRDIIMNRLSDVDISIEVVNEKNTSTPHKIHDNALSAARIAQINGLYPIKRIPVKFSRKNVYEKEFVTLKNVIENAAGTEGRSSNST | not soluble |
| MPSAHSVKLRPLEREDLRYVHQLDNNASVMRYWFEEPYEAFVELSDLYDKHIHDQSERRFVVECDGEKAGLVELVEINHVHRRAEFQIIISPEYQGKGLATRAAKLAMDYGFTVLNLYKLYLIVDKENEKAIHIYRKLGFSVEGELMHEFFINGQYRNAIRMCIFQHQYLAEHKTPGQTLLKPTAQ | soluble |
| MPSDIPKTRLETEGTTQHTSPLRATCHRVFSLNAGRKAGEQYHLFCTSKSDNSTCLDGPARVVLRDILDNLYNRISSMPRANEIKKGMVLNYNGKLLIVKDIDIQSPTARGAATLYKMRFSDVRTGLKVEERFKGDDIVDTVTLSRRGVDFSYVDGNEYVFMDKEDYTPYTFTKDQIEEELLFMPEGGMPDMQVLTWDGQLLALELPQTVDLEIVETAPGIKGASASARNKPATLSTGLVIQVPEYLSAGEKIRIHIEERRYMGRAD | not soluble |
| MPSIYKSVTINTSKEMMCFSDFPVPDHFPNYMHNSKLMDYFGMYATHFGLLNYIRFKTEVQSVRKHPDFSINGQWDVVVETEEKQETLVFDGVLVCSGHHTDPYLPLQSFPGIEKFEGCYFHSREYKSPEDFSGKRIIVIGIGNSGVDIAVELSRVAKQI | not soluble |
| MPSKQVGWWTMSEHTNDEVQPTALSGNDAVNRAAEQWKESAHRNIPGLGDLPIPDDTANLREGPNLHDGLLALLPLVGVWRGTGHADTAEEGQYAFGQQITFAHDGENYLTYESRIWKLDDEGNSTDLDYRESGFWRISLKDEIEVVLTHSTGVAEIFYGEPMNERAWQIESASTMVTAQGPATLGPGKRLYGLMPNNNLGWVDERMVDGEMRPRMSAELSRVIGLEHHHHHH | soluble |
| MPSLSKEAALVHDALVARGLETPLRPPMDELDNETRKSLIAGHMTEIMQLLNLDLSDDSLMETPHRIAKMYVDEIFAGLDYANFPKITLIENKMKVDEMVTVRDITLTSTCEHHFVTIDGKATVAYIPKDSVIGLSKINRIVQFFAQRPQVQERLTQQILTALQTLLGTNNVAVSIDAVHYCVKARGIRDATSATTTTSLGGLFKSSQNTRQEFLRAVRHHP | not soluble |
| MPSNIRESDASCLEMIRSIIRSTADDNSKWVEIFVDFENAQPTDEEREIYNMAEEVLNDCDLVLADVSSYGNGCYAERNQLKNDSDTQALKVLMTKLEPFVARTCSYYEHVAKIEKIVPIILWELSSGPLPLEEQLANKQSIAKQFARLIGFVLDFDVVKMRTAQITNDYSYYRRAKHIVYQDFEDQGVPELPQVQMFLCEGNPMLKALCNGVDSYMQTHQSLPINNTTDVFVTIINVCRFMLANDECLARLTDSSKHLCCRVMTGLVILFDHVDQNGAFVSNSSIDMRDVVRLIKLNTTPEQSDCLLAGLRFTTKHYNDSSTPKSLRHLIEVK | soluble |
| MPSRLSLIAALLLPLAVQAEPADTRALLADSLADSQAQVEAAEQAMRRSENKAVQLYAKRVLTEQQEFDHQLRALAGEKALALPSPRQTERQAAAPGGFDERGFLDAQIRQQDRLVARFEGIARDSADPDLRRFADEWLARFYHHRELADQLRSGRAD | not soluble |
| MPSRQLEDPGAGTPSPVRLHALAGFQQRALCHALTFPSLQRLVYSMCSLCQEENEDMVPDALQQNPGAFRLAPALPARPHRGLSTFPGAEHCLRASPKTTLSGGFFVAVIERVEMPT | not soluble |
| MPSWREKHEKIVQSKILVIGAGGIGCELLKNLAVTGFRKVHVIDLDTIDISNLNRQFLFRKEHVSSSKAATATQVVKQFCPQIELTFDHDSIFEKKYNMEFFQAYDIVLNALDNRAARNYVNRMCHAANRPLIDSGSGGYFGQVSVIMRGKTECYECVDKPVQQTTYPGCTIRNTPSEHIHCTVWAKHVFNQLFGEVDIDDDVSPDMDAVDPDNTEAVTTEKEKEAMKEEPAPVGTRQWAESVDYDAAKVFDKLFLHDIEYLCKMEHLWKQRKRPSPLEFHTASSTGGEPQSLCDAQRDDTSIWTLSTCAKVFSTCIQELLEQIRAEPDVKLAFDKDHAIIMSFVAACANIRAKIFGIPMKSQFDIKAMAGNIIPAIASTNAIVAGIIVTEAVRVIEGSTVICNSSIATTQSNPRGRVRFYGFFN | not soluble |
| MPTISRSALVMYSVDQMYQLINDIPAYPKFLPDCNDSKVIDQDEQSVTAALLVSKGGLSKWFTTKNTLISNEKIHLSLVDGPFKKLEGYWLLTPLSDEACKVSLELEYEFSNKLVSLAFGKVFGHFSNSLVQVFTQRAKEIYGVNVLEHHHHHH | soluble |
| MPTLQAAMFLEKDMQKNTLWFDSLSMQDVDKVGGKNASLGEMVSNLANAGVSVPNGFATTAYAFNQFLDFEGLDERIHQLLDELDVDDVDALRKTGATIRQWILQAPFPAELEQEIRTNYNQLIDGNSELSVAVRSSATAEDLPDASFAGQQETFLNVKGIDAVLEATKHVYASLFNDRAISYRVHQGFDHRGIALSAGIQRMVRSDKAASGVMFTLDTESGFDKVVFITAAWGLGEMVVQGAVNPDEFYVHKPLLEAGYPAIVKKTFGSKLSKMIYANSQVIGKQVEVVDTSAHERNQFSLTDAEIQELAKQALIIEKHYQRPMDIEWAKDGIDGKLYIVQARPETVCSQSEQNVIERYELSHKASVLLEGRAIGQRIGSGTVRLVDSLDQMSLVQQGDVLVTDMTDPDWEPVMKKAAAIVTNRGGRTCHAAIIARELGIPAIVGCGDATRRLSDGAQVTVSCAEGETGYVYAGQLDFAVRRSSVDELPMLPTKVMMNVGNPDRAFDFAQIPNEGVGLARLEFIINKMIGIHPKALLNFDTQSAELQTQILDRIRGYRDPIDFYVSKLTEGIATIAAAFWPKRVIVRMSDFKSNEYSNLLGGSEFEPHEENPMLGFRGASRYISPVFEDCFELETQAIKRVRHEMGLKNVEVMIPFVRTTGEAEAVIDLLAKFGLRRGEQGLKVIMMCELPSNAVLADEFLKFFDGFSIGSNDMTQLTLGLDRDSGDVAHLFDERNPAVKIMLKMAIDAATRAGKYVGICGQGPSDHDDLAQWLMEQGISSVSLNPDTVIDTWLKLGAVSKC | not soluble |
| MPTLRFRQKVVHKLNNSGIIARPKTVIHPIKMKTTLIAAAEVDRLETWQRYTSNMCHGCHSTCCTLPVEVKIKDLIRIGVVDEFEKDEPPKNVAKRLQKEGIIERFNQKSGIFTLTRMSNDDCMYLDRKSRLCTIYDKRPDTCRNHPKVGPRPGYCAYKPKVVGRLEHHHHHH | not soluble |
| MPTNTFFHLPEEKQQRLLDAAQIEFSRHSLQEASIANIVKLAGIPRGSFYQYFENKEDLYFYYFATLRKNSERDLEKQIIAENGDLIEAMDVYFSKMIVEVLTGENASFYRNLFVNMDYRASRRVTDNLATGEEEKNRKQHCHKHRGRKGHAAYAEHLYQIIDHSKLTIETPKEFTWFMQTAMHAVFSTIVDGYRQQRENTAYDSTEAVKQLKMKLSWLKNGAYK | not soluble |
| MPTPPAASSLAAQMGESPAPLYARVKHMIALQIQNGTWPPHHRVPSESELVTQLGFSRMTINRALRELTVEGLLVRMQGVGTFVAEPKSQSALFEVHNIADEIAARGHRHTCKVMVLKEEAAGSERALALDMREGQRVFHSLIVHFENDIPVQIEDRFVNAQVAPDYLKQDFTLQTPYAYLSQVAPLTEGEHVVEAILAEADECKLLQIDAGEPCLLIRRRTWSGRQPVTAARLIHPGSRHRLEGRFTK | not soluble |
| MPTVLRWTRTMCKRPTCRVRQAWLVLPITGRWPSGGVSMKHACMLDSALPKPSQHSLRRQLNAIKREQFPWMSEVTKNAPQMAIIQLGRAFQNFFAGRAKYPKFRKKGMHDRFTLTNDQFDLEASRIRIPRLGWVRMRETLRFAGKIMLATVSRVAGRWFVSITVDVPDPSHLPQAENQGTVGVDLGVLVLATLSTGETVCGPRPHRALLGRVCRLSRSVLRKVKGSANRHKAKATLANLHARIAAIRLDALHTLTSDLTRRFHTIGIENLNVKGMLRNRHLARSIADIGFFEFRRQLEYKAMMRGGQVVVANRFFASSKRCLTCGHTLNELPLSVRQWACPACGARHDRDVNAAVNLKNMAVSSTVSACGEEGAGPRRKTAVGEAGSQLLEHHHHHH | not soluble |
| MPVLHNRISNDALKAKMLAESEPRTTISFYKYFHIADPKATRDALYQLFTALNVFGRVYLAHEGINAQISVPASNVETFRAQLYAFDPALEGLRLNIALDDDGKSFWVLRMKVRDRIVADGIDDPHFDASNVGEYLQAAEVNAMLDDPDALFIDMRNHYEYEVGHFENALEIPADTFREQLPKAVEMMQAHKDKKIVMYCTGGIRCEKASAWMKHNGFNKVWHIEGGIIEYARKAREQGLPVRFIGKNFVFDERMGERISDEIIAHCHQCGAPCDSHTNCKNDGCHLLFIQCPVCAEKYKGCCSEICCEESALPPEEQRRRRAGRENGNKIFNKSRGRLNTTLCIPDPTELEHHHHHH | soluble |
| MPVLNLNDPQAVERYEEFMRQSPYGQVTQDLGWAKVKNNWEPVDVYLEDDQGAIIAAMSMLLGDTPTDKKFAYASKGPVMDVTDVDLLDRLVDEAVKALDGRAYVLRFDPEVAYSDEFNTTLQDHGYVTRNRNVADAGMHATIQPRLNMVLDLTKFPDAKTTLDLYPSKTKSKIKRPFRDGVEVHSGNSATELDEFFKTYTTMAERHGITHRPIEYFQRMQAAFDADTMRIFVAEREGKLLSTGIALKYGRKIWYMYAGSMDGNTYYAPYAVQSEMIQWALDTNTDLYDLGGIESESTDDSLYVFKHVFVKDAPREYIGEIDKVLDPEVYAELVKD | soluble |
| MPVLSIISCRMFEDELAHIISSDKEMKQLIVVENKDSFGLLRKLRSDNCLPRTSPLDRVPFLLGNGHGSGFMTISKPLLILPFFRKIHEKMKIKAAQELTVVVNLLKLGLHDDIEILRSEVYKNIKEMTSFSDGILLFYCSCGGAFENLEENCLEFDCPLYWFKDGNEEVVVDCISAAIGGNAAYDELMYTCRGTGALYFTSMWASSWKEMREERKKSRNFNENYLKDPRYSRVVKLDTGLSYDPDFHKNVRDFARTFDMEIIEVKGSVELAEKSYRTAKKGVVQHTLKLEHHHHHH | not soluble |
| MPVSDQLIDQLLADYESPQDLLGEQGILRQLTKKLAERALEAEMELHLGYAKHDAAGFNTGNSRNGKSRKSVRSIHGDIELETPRDRNGSFEPKLIKKGEKQLGGFDERIVSLYARGMSTRDIQAHFEETYGVEVSPTFISQITNAVLDEVKAWQLRPLAPVYPIVYLDCLVVRSRDSGSIQNKSVYLALGVNTDGEKELLGLWIAQTEGAKFWLSVMNELKNRGVEDIFIACVDGLKGFPDAIEAVYPKTQVQLCIVHQIRNSLRFVSWKERKAVAADLKTIYGAATLQQAELALEQFAKTWDKQHPSISKSWRENWTRLSVFFDYPPEIRKVIYTTNAIESLNASLRQVTKTRRSFPSDDAVLKLLYLALHQIAKKWTMPLRDWKPAMTQFMIMYSDRVSL | not soluble |
| MPYVFLLSPQLEIASQWDGYYEKTFEVSDHVHKEIILKVSGQTVLITGSGSGLGRLMAFEFGKLGARLVLWDINEQGNKETLKELEAMGVEVWTCNIFHIYRFIR | not soluble |
